# Data as given in the supplement of paper PMC10126150.
# ± gives the standard deviation of the averaged measurements.
# Tested on: ATP
# Assay: switch fluorescence ratio, 500 uM ATP over buffer (Cy3 cluster intensity, sum of 5 cycles each) (fold (ratio)); higher = stronger signal-on switching upon ATP binding; sequences stand for … in TCGTCGGCAGCGTCAGATGTGTATAAGAGACAGTTTTTTTTTTTTTTTTTTTTTTTTT…TC
# Settings: aptamer strand: ATP DNA aptamer (quencher-CACCTGGGGGAGTATTGCGGAGGAAGG + anchor), 100 nM annealed; ATP concentration: 500 uM
# How it was run: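 Five buffer/ATP imaging cycles were run on Cy3-labelled switching-strand clusters on a modified Illumina MiSeq flow-cell, with NaOH stripping and re-annealing between cycles. In each cycle, clusters annealed to 100 nM quencher-labelled ATP aptamer were imaged in selection buffer, then after 15 min with 500 uM ATP at 22 °C. Per cluster, the fluorescence ratio is summed target-cycle over summed buffer-cycle Cy3 intensity, averaged per switch-domain sequence. Only clusters within 100-1000 RFU were kept.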
# 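Further: ATP exposure 15 min at 22 °C before imaging.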
row,Sequence,switch fluorescence ratio
1,GTGTTCATGG,1 ± 0.012
2,GTGTTCGGCG,1.07 ± 0.066
3,GTGTTCTTGC,0.9845 ± 0.0043
4,GTGTTGGCTT,0.995 ± 0.033
5,GTGTTGTCGG,1.01 ± 0.026
6,GTGTTGTTCG,0.995 ± 0.015
7,GTGTTTAGTG,0.9787 ± 0.0029
8,GTGTTTCCGG,1.01 ± 0.045
9,GTGTTTGCTA,1.02 ± 0.032
10,GTGTTTTATT,1.01 ± 0.036
11,GTGTTTTCCT,1.04 ± 0.017
12,GTGTTTTCGG,0.985 ± 0.016
13,GTGTTTTGGC,1.02 ± 0.029
14,GTGTTTTTTG,0.968 ± 0.019
15,GTGTTTTTTT,0.991 ± 0.023
16,GTTAAAAACA,1.03 ± 0.052
17,GTTAAAGGGT,1.01 ± 0.0075
18,GTTAACCCAT,1.0083 ± 4.1e-05
19,GTTAACGATA,1.03 ± 0.038
20,GTTAACGTTT,0.982 ± 0.036
21,GTTAACTCCA,1.02 ± 0.022
22,GTTAACTTTG,1.0027 ± 0.00076
23,GTTAAGTAGC,0.971 ± 0.025
24,GTTAAGTTTT,0.985 ± 0.021
25,GTTAATATAA,0.9971 ± 0.003

row,Sequence,switch fluorescence ratio
1,GTTAATGTAA,0.9934 ± 0.0059
2,GTTAATTGAT,1 ± 0.027
3,GTTAATTTAG,0.987 ± 0.01
4,GTTACAGTGG,1 ± 0.061
5,GTTACGAAAA,1 ± 0.056
6,GTTACGGGAC,1.24 ± 0.015
7,GTTACGGGGG,1.02 ± 0.031
8,GTTACTGGTG,1.05 ± 0.027
9,GTTACTGTGC,1.08 ± 0.025
10,GTTAGAAAAA,1.03 ± 0.023
11,GTTAGAAAAT,1.01 ± 0.03
12,GTTAGACTAT,0.99057 ± 0.00092
13,GTTAGAGAGC,1.06 ± 0.0068
14,GTTAGAGGGT,1.01 ± 0.021
15,GTTAGAGTCA,1.01 ± 0.013
16,GTTAGATGTT,1 ± 0.011
17,GTTAGCATTG,1 ± 0.029
18,GTTAGCCGCT,1.03 ± 0.014
19,GTTAGGATGG,1.01 ± 0.044
20,GTTAGGGGAA,1.02 ± 0.031
21,GTTAGGGGGG,0.979 ± 0.036
22,GTTAGGGGTT,0.996 ± 0.024
23,GTTAGGTTGG,0.9811 ± 0.007
24,GTTAGTAGTG,0.952 ± 0.022
25,GTTAGTATAT,1 ± 0.018

row,Sequence,switch fluorescence ratio
1,GTTAGTCAAA,0.991 ± 0.01
2,GTTATAGCGT,0.963 ± 0.026
3,GTTATATGGA,0.996 ± 0.018
4,GTTATCAGTT,0.99 ± 0.014
5,GTTATCATTT,0.989 ± 0.011
6,GTTATCTAGC,0.994 ± 0.017
7,GTTATGGGGT,1.01 ± 0.04
8,GTTATTACGA,1.005 ± 0.0041
9,GTTATTATAG,0.992 ± 0.005
10,GTTATTATGC,0.952 ± 0.035
11,GTTATTGGTA,1.01 ± 0.018
12,GTTATTTACG,1.02 ± 0.033
13,GTTATTTATT,0.995 ± 0.047
14,GTTATTTGGG,0.979 ± 0.035
15,GTTATTTTAC,1.01 ± 0.031
16,GTTATTTTGT,0.99 ± 0.019
17,GTTCAAGATA,1 ± 0.036
18,GTTCAGATTG,1.03 ± 0.0048
19,GTTCAGTTGC,0.996 ± 0.033
20,GTTCAGTTTG,1.03 ± 0.031
21,GTTCATAAAG,0.98 ± 0.028
22,GTTCCAGTTT,1.039 ± 0.006
23,GTTCCGCCGA,1.23 ± 0.026
24,GTTCCGGTTT,1.01 ± 0.034
25,GTTCCTATGA,1.01 ± 0.043

row,Sequence,switch fluorescence ratio
1,GTTCCTCATT,1.45 ± 0.61
2,GTTCGAAAAA,0.961 ± 0.09
3,GTTCGAAAGG,1.022 ± 0.0095
4,GTTCGAGAGC,0.995 ± 0.057
5,GTTCGGGATT,0.981 ± 0.023
6,GTTCGGGGGT,0.986 ± 0.025
7,GTTCTAGTGT,0.972 ± 0.04
8,GTTCTATATT,0.986 ± 0.062
9,GTTCTATCAG,0.995 ± 0.09
10,GTTCTCCTGA,1.01 ± 0.014
11,GTTCTGGGGT,1 ± 0.016
12,GTTCTTGATG,0.967 ± 0.015
13,GTTCTTGGAG,0.9991 ± 0.0031
14,GTTCTTGTAA,1.017 ± 0.0088
15,GTTGAAAATT,0.99 ± 0.021
16,GTTGAACGGT,1.1 ± 0.053
17,GTTGAAGAAA,0.998 ± 0.072
18,GTTGAATCTG,1.26 ± 0.36
19,GTTGACCGGC,0.996 ± 0.011
20,GTTGAGCGGG,0.9786 ± 0.0069
21,GTTGAGTAGG,0.994 ± 0.012
22,GTTGATAAGT,1.01 ± 0.0084
23,GTTGATATAG,1 ± 0.021
24,GTTGATGCCG,1.001 ± 0.0012
25,GTTGATGGTG,1 ± 0.039

row,Sequence,switch fluorescence ratio
1,GTTGCAGGGT,1.004 ± 0.0065
2,GTTGCCGAGT,1.024 ± 0.0048
3,GTTGCGATGA,1.02 ± 0.013
4,GTTGCGGGGG,0.9937 ± 0.0015
5,GTTGCGGGGT,1.02 ± 0.029
6,GTTGCGTCGA,0.997 ± 0.016
7,GTTGCGTCTA,1.04 ± 0.033
8,GTTGCTACCT,1.05 ± 0.038
9,GTTGCTGATT,1.02 ± 0.04
10,GTTGCTGGGG,0.998 ± 0.011
11,GTTGCTTTGG,1.04 ± 0.017
12,GTTGGAAGAT,1.03 ± 0.015
13,GTTGGAGCCT,0.995 ± 0.065
14,GTTGGCAACA,1.04 ± 0.056
15,GTTGGGAAAA,1.01 ± 0.034
16,GTTGGGGAAT,1.04 ± 0.093
17,GTTGGGGAGC,1.005 ± 0.0066
18,GTTGGGGAGT,0.9776 ± 0.0062
19,GTTGGGGGAG,0.978 ± 0.02
20,GTTGGGGGCC,0.997 ± 0.013
21,GTTGGGGGTA,0.999 ± 0.028
22,GTTGGGGGTG,0.992 ± 0.037
23,GTTGGGGTGC,1.01 ± 0.028
24,GTTGGGTATA,0.996 ± 0.014
25,GTTGGGTCAT,1.01 ± 0.045

row,Sequence,switch fluorescence ratio
1,GTTGGGTGAG,0.987 ± 0.02
2,GTTGGGTGGG,0.984 ± 0.013
3,GTTGGGTTGG,1 ± 0.033
4,GTTGGTCTGG,0.943 ± 0.048
5,GTTGGTGACG,1.048 ± 0.0055
6,GTTGGTGTTG,0.998 ± 0.032
7,GTTGGTTTTT,0.975 ± 0.027
8,GTTGTAAAAA,0.968 ± 0.046
9,GTTGTAGGGT,0.976 ± 0.022
10,GTTGTCCTTG,1.01 ± 0.015
11,GTTGTCGGGG,1.02 ± 0.018
12,GTTGTGAGCG,1.01 ± 0.048
13,GTTGTGCGGG,1.02 ± 0.0089
14,GTTGTGGGGA,1.02 ± 0.023
15,GTTGTGTCTG,0.979 ± 0.013
16,GTTGTGTTTG,0.998 ± 0.022
17,GTTGTTACAA,1.004 ± 0.0092
18,GTTGTTAGCG,1 ± 0.037
19,GTTGTTATTT,1 ± 0.011
20,GTTTAAAAGC,0.9842 ± 0.0061
21,GTTTAAACGC,1.01 ± 0.026
22,GTTTAAAGGG,0.998 ± 0.013
23,GTTTAAATAG,1.04 ± 0.011
24,GTTTAAGAAA,0.998 ± 0.027
25,GTTTAAGTTC,0.988 ± 0.017

row,Sequence,switch fluorescence ratio
1,GTTTAATTGC,0.995 ± 0.049
2,GTTTAATTTT,0.987 ± 0.033
3,GTTTACGTTC,1.02 ± 0.049
4,GTTTAGATG,0.989 ± 0.022
5,GTTTATAGGG,0.985 ± 0.025
6,GTTTATGCAC,1.06 ± 0.084
7,GTTTATGGGT,1.023 ± 0.009
8,GTTTATGGTT,1 ± 0.022
9,GTTTATTCGA,0.989 ± 0.014
10,GTTTATTGTT,1 ± 0.047
11,GTTTATTTCT,1.02 ± 0.049
12,GTTTCAAGAT,0.994 ± 0.044
13,GTTTCCAGTT,1.03 ± 0.023
14,GTTTCCTATT,0.959 ± 0.013
15,GTTTCGTCCA,2.1 ± 1.6
16,GTTTCTGTTA,0.9574 ± 0.0033
17,GTTTGCATTT,0.981 ± 0.015
18,GTTTGCGACT,0.998 ± 0.067
19,GTTTGCGCAG,1.02 ± 0.018
20,GTTTGCTCCC,1.15 ± 0.086
21,GTTTGCTTAG,0.986 ± 0.024
22,GTTTGGGGTA,0.986 ± 0.013
23,GTTTGGGGTC,0.984 ± 0.018
24,GTTTGGGTAG,1.02 ± 0.034
25,GTTTGGGTGT,1 ± 0.016

row,Sequence,switch fluorescence ratio
1,GTTTGGTTGG,1 ± 0.02
2,GTTTGTAAGC,1.03 ± 0.01
3,GTTTGTAGTG,1.01 ± 0.026
4,GTTTGTCTGC,0.963 ± 0.025
5,GTTTGTCTTT,1.02 ± 0.012
6,GTTTGTGCGG,0.9811 ± 0.0084
7,GTTTGTGGTA,0.978 ± 0.011
8,GTTTGTGGTT,0.988 ± 0.019
9,GTTTGTGTTC,0.988 ± 0.015
10,GTTTTAACTT,0.999 ± 0.054
11,GTTTTAAGGC,1.01 ± 0.058
12,GTTTTACCGC,1.01 ± 0.018
13,GTTTTACGTC,0.981 ± 0.047
14,GTTTTACTGA,1.03 ± 0.021
15,GTTTTATCCG,1.025 ± 0.0045
16,GTTTTCAGTA,0.982 ± 0.0022
17,GTTTTCGCCG,1.03 ± 0.11
18,GTTTTCGGGG,1.04 ± 0.029
19,GTTTTCTATG,1 ± 0.021
20,GTTTTCTTCA,1.04 ± 0.018
21,GTTTTGAGAG,0.9595 ± 0.0086
22,GTTTTGCGTT,0.988 ± 0.028
23,GTTTTGGAGG,0.9691 ± 0.0043
24,GTTTTGGGAG,1.02 ± 0.033
25,GTTTTGGGCC,1.02 ± 0.05
